Test results reported in paper PMC3115021, “Dynamics of Cdk1 Substrate Specificity during the Cell Cycle” (Molecular Cell, 2011).

Assays:
Assay in all cases: Quantitative phosphorylation assay of T33-Sic1ΔC constructs and recombinant substrates
Type in all cases: biochemical
Clb2-Cdk1 = target: T1, Clb2-Cdk1 (Saccharomyces cerevisiae, UniProt P00546+P24869); settings: Table S2; purified protein substrate; relative values, not divided by [S]
T1 construct: We purified the four cyclin-Cdk1 complexes from yeast; made in house; host or cells: S. cerevisiae strain DOM0077 (gal-CLB2-TAP, sic1 deleted); Cks1 from bacteria
T1 sequence (P00546 2-298 limits assumed): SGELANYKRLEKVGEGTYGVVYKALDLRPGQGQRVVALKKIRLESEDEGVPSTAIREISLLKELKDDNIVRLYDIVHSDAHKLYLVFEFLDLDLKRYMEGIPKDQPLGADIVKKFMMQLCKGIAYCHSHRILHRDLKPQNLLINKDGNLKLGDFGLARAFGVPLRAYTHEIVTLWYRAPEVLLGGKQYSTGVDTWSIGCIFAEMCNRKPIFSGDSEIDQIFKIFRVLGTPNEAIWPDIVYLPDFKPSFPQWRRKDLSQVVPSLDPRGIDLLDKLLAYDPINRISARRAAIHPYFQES
T1 sequence (P24869 2-491 partner limits assumed): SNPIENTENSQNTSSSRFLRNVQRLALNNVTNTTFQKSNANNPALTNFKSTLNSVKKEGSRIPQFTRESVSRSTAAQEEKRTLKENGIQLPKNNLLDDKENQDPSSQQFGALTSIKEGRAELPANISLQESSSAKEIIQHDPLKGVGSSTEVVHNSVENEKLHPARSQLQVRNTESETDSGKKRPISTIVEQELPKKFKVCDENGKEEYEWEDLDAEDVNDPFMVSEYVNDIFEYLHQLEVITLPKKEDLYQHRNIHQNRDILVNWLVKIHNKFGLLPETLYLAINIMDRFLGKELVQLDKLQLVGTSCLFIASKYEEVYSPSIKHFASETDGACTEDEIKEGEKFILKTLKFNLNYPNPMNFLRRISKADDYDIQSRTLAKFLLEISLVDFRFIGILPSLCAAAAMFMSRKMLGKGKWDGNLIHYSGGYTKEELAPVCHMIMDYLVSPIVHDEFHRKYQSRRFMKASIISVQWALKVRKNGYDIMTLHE
T1 sequence (P20486 whole entry partner): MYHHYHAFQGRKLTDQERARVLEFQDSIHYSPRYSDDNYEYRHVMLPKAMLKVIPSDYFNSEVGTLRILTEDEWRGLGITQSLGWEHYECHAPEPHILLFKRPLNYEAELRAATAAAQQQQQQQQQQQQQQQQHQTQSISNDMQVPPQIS
Description: (§1) For the quantitative phosphorylation assays of T33-Sic1ΔC constructs and recombinant substrates, substrate concentrations were kept in the range of 0.5–2 μM (in the linear [S] versus v0 range, several-fold below the estimated KM value), and initial velocity conditions were defined as an initial substrate turnover of up to 10% of the total turnover. For the steady-state peptide kinetics of the Histone peptide PKTPKKAKKL, a similar assay composition was used as for protein substrates, and phosphocellulose paper was used for the quantification of the phosphorylated substrate. […]
(§2) similar substrate specificity as the Cln2-Cdk1 version purified using a TAP-tag. N-terminally 6His-tagged recombinant T33-Sic1ΔC constructs and substrates were cloned into the pET28a vector and purified by standard cobalt affinity chromatography and elution with 200 mM imidazole. 6His-Fin1 was purified as described previously (Woodbury and Morgan, 2007). Substrates cloned into the pGEX-4T-1 were purified on glutathione agarose columns using 5 mM reduced glutathione for elution. Cks1 was purified as described previously (Reynard et al., 2000). The optimal working concentration for purified Cks1 was taken as 500 nM based on optimization performed for cyclin-Cdk1 preparations and T33-Sic1ΔC as a substrate.
(§3) For the quantitative phosphorylation assays of T33-Sic1ΔC constructs and recombinant substrates, substrate concentrations were kept in the range of 0.5-2 μM (in the linear [S] vs v0 range, several-fold below the estimated KM value), and the initial velocity conditions were defined as an initial substrate turnover ranging up to 10% of the total turnover. The latter was estimated by a long-term incubation with excess amounts of cyclin-Cdk1 and 32P-γ-ATP in the standard reaction mixture given below. About 1-10 nM of purified kinase complex was used, reaction aliquots were taken at two or more time points, and the reaction was stopped by SDS-PAGE sample buffer. The relative kcat/KM values for the substrates were calculated as the ratio of v0/[S], which was determined from at least two independent experiments. The basal composition of the assay mixture contained 50 mM Hepes, pH 7.4, 100 mM NaCl, 0.1% NP-40, 20 mM imidazole, 0.1 mg/ml 2HA peptide, 2% glycerol, 2 mM EGTA, 0.2 mg/ml BSA, […], and 500 μM ATP (with added 32P-γ-ATP (Perkin Elmer)).
(§4) About 1-10 nM of purified kinase complex was used, reaction aliquots were taken at two or more time points, and the reaction was stopped by SDS-PAGE sample buffer. For the steady-state peptide kinetics of the Histone peptide PKTPKKAKKL, a similar assay composition was used as for protein substrates and the standard phosphocellulose method was applied for the quantification of the phosphorylated substrate (Loog and Morgan, 2005). Synthetic peptides as competitor agents were used in 4 mM final concentrations. […]

Cln2-Cdk1 = target: T2, Cln2-Cdk1 (Saccharomyces cerevisiae, UniProt P00546+P20438); settings: for kcat/KM, Cln2: Table S2, purified protein substrate, relative values, not divided by [S]
T2 construct: We purified the four cyclin-Cdk1 complexes from yeast; made in house; host or cells: S. cerevisiae strain DMY305 (galactose-induced); Cks1 from bacteria
T2 sequence (P00546 2-298 limits assumed): as the sequence (P00546 2-298 limits assumed) above
T2 sequence (P20438 whole entry partner): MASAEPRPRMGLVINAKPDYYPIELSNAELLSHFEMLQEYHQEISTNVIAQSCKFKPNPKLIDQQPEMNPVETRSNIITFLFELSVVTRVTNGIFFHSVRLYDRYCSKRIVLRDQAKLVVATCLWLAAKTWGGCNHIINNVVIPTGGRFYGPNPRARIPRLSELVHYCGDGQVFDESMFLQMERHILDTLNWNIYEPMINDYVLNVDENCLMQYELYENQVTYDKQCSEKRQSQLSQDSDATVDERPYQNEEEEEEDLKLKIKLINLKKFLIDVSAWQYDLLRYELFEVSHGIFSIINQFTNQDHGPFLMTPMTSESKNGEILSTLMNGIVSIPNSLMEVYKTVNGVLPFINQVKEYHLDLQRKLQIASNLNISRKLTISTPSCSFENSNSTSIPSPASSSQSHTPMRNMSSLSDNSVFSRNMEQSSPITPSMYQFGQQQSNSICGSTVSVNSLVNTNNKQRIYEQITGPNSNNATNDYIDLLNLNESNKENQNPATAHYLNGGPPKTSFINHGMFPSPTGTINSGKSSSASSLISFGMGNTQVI
T2 sequence (P20486 whole entry partner): as the sequence (P20486 whole entry partner) above
Description: as §1, §2, §3, §4

Clb3-Cdk1 = target: T3, Clb3-Cdk1 (Saccharomyces cerevisiae, UniProt P00546+P24870); settings: Table S2; purified protein substrate; relative values, not divided by [S]
T3 construct: We purified the four cyclin-Cdk1 complexes from yeast; made in house; host or cells: S. cerevisiae strain DOM0957 (gal-CLB3-TAP, sic1 deleted); Cks1 from bacteria
T3 sequence (P00546 2-298 limits assumed): as the sequence (P00546 2-298 limits assumed) above
T3 sequence (P24870 whole entry partner): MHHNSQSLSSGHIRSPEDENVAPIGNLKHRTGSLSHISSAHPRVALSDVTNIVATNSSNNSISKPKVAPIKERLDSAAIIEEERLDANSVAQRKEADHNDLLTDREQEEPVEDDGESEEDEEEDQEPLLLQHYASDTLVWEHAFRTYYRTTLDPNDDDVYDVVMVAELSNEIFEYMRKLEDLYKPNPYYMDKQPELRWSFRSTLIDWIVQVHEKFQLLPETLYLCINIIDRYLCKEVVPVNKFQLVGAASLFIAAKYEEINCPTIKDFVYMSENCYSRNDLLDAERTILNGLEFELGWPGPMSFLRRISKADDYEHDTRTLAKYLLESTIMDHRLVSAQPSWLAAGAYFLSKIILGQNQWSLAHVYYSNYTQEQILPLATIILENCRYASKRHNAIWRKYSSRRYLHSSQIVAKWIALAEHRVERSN
T3 sequence (P20486 whole entry partner): as the sequence (P20486 whole entry partner) above
Description: as §1, §2, §3, §4

Clb5-Cdk1 = target: T4, Clb5-Cdk1 (Saccharomyces cerevisiae, UniProt P00546+P30283); settings: for kcat/KM, Clb5: Table S2, purified protein substrate, relative values, not divided by [S]; for effect of competitor peptide on Clb5-dependent phosphorylation of Sic1ΔC: synthetic competitor peptide 4 mM, result in words
T4 construct: We purified the four cyclin-Cdk1 complexes from yeast; made in house; host or cells: S. cerevisiae strain DOM0076 (gal-CLB5-TAP, sic1 deleted); Cks1 from bacteria
T4 sequence (P00546 2-298 limits assumed): as the sequence (P00546 2-298 limits assumed) above
T4 sequence (P30283 whole entry partner): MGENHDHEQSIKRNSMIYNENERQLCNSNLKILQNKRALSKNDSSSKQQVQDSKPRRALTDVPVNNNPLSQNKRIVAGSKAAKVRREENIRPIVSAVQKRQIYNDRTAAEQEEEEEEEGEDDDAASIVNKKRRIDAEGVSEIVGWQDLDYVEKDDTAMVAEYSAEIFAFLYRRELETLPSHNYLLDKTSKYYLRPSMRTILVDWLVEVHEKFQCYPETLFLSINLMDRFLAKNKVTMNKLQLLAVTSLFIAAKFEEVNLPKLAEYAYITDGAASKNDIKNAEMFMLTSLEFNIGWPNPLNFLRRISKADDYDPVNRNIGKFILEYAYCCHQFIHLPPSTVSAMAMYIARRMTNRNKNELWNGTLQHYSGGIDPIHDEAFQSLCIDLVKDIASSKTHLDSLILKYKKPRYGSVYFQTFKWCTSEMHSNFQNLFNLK
T4 sequence (P20486 whole entry partner): as the sequence (P20486 whole entry partner) above
Description: as §1, §2, §3, §4

[1] = synthetic competitor peptide 4 mM

Row | Molecule | kcat/KM, Clb2 (Clb2-Cdk1) [relative units] | kcat/KM, Cln2 (Cln2-Cdk1) [relative units] | kcat/KM, Clb3 (Clb3-Cdk1) [relative units] | kcat/KM, Clb5 (Clb5-Cdk1) [relative units] | effect of competitor peptide on Cln2-dependent phosphorylation of Sic1ΔC (Cln2-Cdk1; [1]) | effect of competitor peptide on Clb5-dependent phosphorylation of Sic1ΔC (Clb5-Cdk1) | effect of competitor peptide on Cln2 docking / Cln2-dependent phosphorylation of Sic1ΔC (Cln2-Cdk1; synthetic competitor peptide 4 mM, result in words)
1 | RTT109: purified yeast protein tested as Cdk1 substrate | 0.080 | 0.067 | 0.027 | 0.010 |  |  | 
2 | RVNAIAFPT [AXL peptide, similar peptide in which the arginine of the RXL motif was replaced with alanine] |  |  |  |  | 3- to 4 fold | only the RXL peptide reduces the specificity of Clb5 | 
3 | RVNRILFPT [synthetic peptide based on the RXL2 motif of Sic1] |  |  |  |  | 3- to 4 fold | had an effect on Clb5-dependent phosphorylation | 
4 | VLLPPSRPTS [LP peptide] |  |  |  |  |  |  | competitive inhibitor of the docking
5 | MSA1: purified yeast protein tested as Cdk1 substrate (protein, UniProt Q08471 1-629, looked up) G1-specific transcription …: MDKSMIKKRGRPPITKDYPNPLQSPMAHSSMQVQKQGPHSFAKPLMKVGQSSPSPNKRRLSIDHHHNLAATTRKGRYRGVLLSTPTKKSSTNGSTPISTPSSNDSYNNTVFSETRKTFLQSSPPIMTSSPAFQKKNDYMFPSQEQFKLSLTITESGKAVIAGSLPFSPSSKSSHLMNNNNKKIMQNEKIHKGSKKNAPKFEKRRILSLLKQMKNEKYCDTDTLPEAPPAKPSRSDIIDTELPTIIETSASPIGSARNNNILLSQPPQSPPSSAQLKPPSTPKSSLQFRMGFTPNVALNSVSLSDTISKSTNAVGASNNNNQNGNSISNIADANTLLTLTNSPGVFLSPRNKMLPKSTTASNEQQQEFVFKFSSGDPLLLTDDADGNWPEMLFNVSNTPRRQKCFNTPPSWINFGSPGLFSPPRSSNVMVNGTTVATASDSGNVHRQLQAQLEAQVQVQSQSNSPTQRQQQQRQFQIPPPHINMNSSPPQINIASPPHQSMSRVSSIYFNKEKTTTGVANMLGNTKSENLQPPANLFTAAHGPSTPRNQEFQLPTLIECTPLIQQTMNGSLGTKYIPGTSISNSATPNLHGFPVGTGKAPSSFDDSLKQNPYSNKQDDARTALKRLIDDQ | 0.034 | 0.157 | 0.043 | 0.024 |  |  | 
6 | STB1: purified yeast protein, Cln2-specific Cdk1 target (protein, UniProt P42845 2-420, looked up) Protein STB1: SQPQMSPEKEQELASKILHRAELAQMTRQLKLGLSNVPSTKRKQDSTTKKRSGEDAEDVDEDHKTLLEAISPAKKPLHDDTNKMTVISPVKFVEKPNTPPSSRQRKAEDRSQQIKPRKEDTPSTPRASATPIILPHASSHYQRPHDKNFMTPKRNNNNSSNHSNNNNNIKKKAAGSKDAPQDSDNTAGADLLMYLATSPYNKSSHHGTPMAVRMPTTPRSYHYASQLSLNGNTASTSNDAVRFSHIKPSASSPQSTFKSNLLPNFPDESLMDSPSLYLSNNNGSVQATLSPQQRRKPTTNTLHPPSNVPTTPSRELNGTNFNLLRTPNFNMGDYLHNLFSPSPRVPAQQGASNTSASIPSVPAMVPGSSSNTSAIATAAISSHTTNNFLDMNANGIPLIVGPGTDRIGEGESIDDKLTD | 0.878 | 2.011 | 0.622 | 0.191 |  |  | 
7 | TOS8: purified yeast protein tested as Cdk1 substrate (protein, UniProt P53147 1-276, looked up) Homeobox protein TOS8: MGTSIVNLNQKIELPPIQVLFESLNRENETKPHFEERRLYQPNPSFVPRTNIAVGSPVNPVPVSSPVFFIGPSPQRSIQNHNAIMTQNIRQYPVIYNNNREVISTGERNYIITVGGPPVTSSQPEYEHISTPNFYQEQRLAQPHPVNESMMIGGYTNPQPISISRGKMLSGNISTNSVRGSNNGYSAKEKKHKAHGKRSNLPKATVSILNKWLHEHVNNPYPTVQEKRELLAKTGLTKLQISNWFINARRRKIFSGQNDANNFRRKFSSSTNLAKF | 0.254 | 2.830 | 0.276 | 0.069 |  |  | 
8 | YOX1: purified yeast protein tested as Cdk1 substrate (protein, UniProt P34161 1-385, looked up) Homeobox protein YOX1: MSQETKMLPSLSSLLSGTEISSSPVSPSFTNPRTSFHLDDRGTIKLPPLNTSINRPRSVESALRHTVTSLHENSSAYGDDMLKHTQSDSALSSQLNSSQETVDESHENLLLTPLNSKKRDYSVSSKKNDILTPLSAAKSIIIPSASKEKRRAFAFITHSQETFPKKEPKIDNAPLARRKRRRTSSQELSILQAEFEKCPAPSKEKRIELAESCHMTEKAVQIWFQNKRQAVKRQRIATSKSTTIIQTVSPPSPPLDVHATPLASRVKADILRDGSSCSRSSSSSPLENTPPRPHHSLNRRSSTPSIKRSQALTFHLNPQKKTLTPVKTSPNSRVNKLINSIDHSPSKAKRPVSNPSGSPKRKRKFGFKIVDQQPLKDLDPNAFRG | 4.536 | 0.584 | 2.094 | 0.244 |  |  | 
9 | ACE2: purified yeast protein tested as Cdk1 substrate (protein, UniProt P21192 1-770, looked up) Metallothionein expression …: MDNVVDPWYINPSGFAKDTQDEEYVQHHDNVNPTIPPPDNYILNNENDDGLDNLLGMDYYNIDDLLTQELRDLDIPLVPSPKTGDGSSDKKNIDRTWNLGDENNKVSHYSKKSMSSHKRGLSGTAIFGFLGHNKTLSISSLQQSILNMSKDPQPMELINELGNHNTVKNNNDDFDHIRENDGENSYLSQVLLKQQEELRIALEKQKEVNEKLEKQLRDNQIQQEKLRKVLEEQEEVAQKLVSGATNSNSKPGSPVILKTPAMQNGRMKDNAIIVTTNSANGGYQFPPPTLISPRMSNTSINGSPSRKYHRQRYPNKSPESNGLNLFSSNSGYLRDSELLSFSPQNYNLNLDGLTYNDHNNTSDKNNNDKKNSTGDNIFRLFEKTSPGGLSISPRINGNSLRSPFLVGTDKSRDDRYAAGTFTPRTQLSPIHKKRESVVSTVSTISQLQDDTEPIHMRNTQNPTLRNANALASSSVLPPIPGSSNNTPIKNSLPQKHVFQHTPVKAPPKNGSNLAPLLNAPDLTDHQLEIKTPIRNNSHCEVESYPQVPPVTHDIHKSPTLHSTSPLPDEIIPRTTPMKITKKPTTLPPGTIDQYVKELPDKLFECLYPNCNKVFKRRYNIRSHIQTHLQDRPYSCDFPGCTKAFVRNHDLIRHKISHNAKKYICPCGKRFNREDALMVHRSRMICTGGKKLEHSINKKLTSPKKSLLDSPHDTSPVKETIARDKDGSVLMKMEEQLRDDMRKHGLLDPPPSTAAHEQNSNRTLSNETDAL | 0.069 | 0.025 | 0.029 | 0.004 |  |  | 
10 | BOP3: purified yeast protein tested as Cdk1 substrate (protein, UniProt P53958 1-396, looked up) Protein BOP3: MSTFNSYSQPKESNDNSHNNVNKSKSLLDIIFGTNVSEWAFSENALMKAMDLKIEQEKTKQQYYKLENLNRSIELFKLASSSGLPINQIHKLFNTDHGVPASSPMKAGGNQPHNNTEGTQSSENLPRLNGSMKSLKPLNMNTVSPTPMSRQPSPYKFPASSSTGGISHSTVTNVQRRANSPARIGASAVAALNDNISIKEEDVARRIPSGTKSQESPLNKKPTSLHSRNLSLPIGKFTNPNIPSTMTSILSFNRDQQQPLSQPLPPPPQQQQDLHTHNLHTIPRKPGMVQKKHRRARSTSSFGVIDLSIIDEAKEKQVQRSPSPIHSNVSVALTSHDKPIESNMKEQPNMLQSVREGRQVHDDLDDRTCSESSSRNESPVRTITKDNSVGKILNST | 0.109 | 0.521 | 0.101 | 0.027 |  |  | 
